The source of these data is publication PMC8113518, “JRAB/MICAL-L2 undergoes liquid–liquid phase separation to form tubular recycling endosomes” (Communications Biology, 2021).

The target of this experiment is T1, His-GFP-JRAB/MICAL-L2 (mouse, UniProt Q3TN34 1-1009).
T1 construct: JRAB/MICAL-L2, mouse; cDNA encoding JRAB/MICAL-L2 subcloned into pcDNAHisMax-GFP; The plasmid encodes the His6-tag followed by GFP, then the protein's cDNA; source: HEK293, transfected, purified (cOmplete resin, Superdex 200)
The experiment in a line: recruitment to liposomes seen by confocal microscopy; purified His-GFP-JRAB/MICAL-L2 and His-mCherry-Rab8ADA (150 nM) mixed with PC:PS (7:3) liposomes in 20 mM HEPES-NaOH pH 7.5, 100 mM KCl, 1 mM DTT. As to conditions: both partners purified.

T1 sequence (Q3TN34 whole entry): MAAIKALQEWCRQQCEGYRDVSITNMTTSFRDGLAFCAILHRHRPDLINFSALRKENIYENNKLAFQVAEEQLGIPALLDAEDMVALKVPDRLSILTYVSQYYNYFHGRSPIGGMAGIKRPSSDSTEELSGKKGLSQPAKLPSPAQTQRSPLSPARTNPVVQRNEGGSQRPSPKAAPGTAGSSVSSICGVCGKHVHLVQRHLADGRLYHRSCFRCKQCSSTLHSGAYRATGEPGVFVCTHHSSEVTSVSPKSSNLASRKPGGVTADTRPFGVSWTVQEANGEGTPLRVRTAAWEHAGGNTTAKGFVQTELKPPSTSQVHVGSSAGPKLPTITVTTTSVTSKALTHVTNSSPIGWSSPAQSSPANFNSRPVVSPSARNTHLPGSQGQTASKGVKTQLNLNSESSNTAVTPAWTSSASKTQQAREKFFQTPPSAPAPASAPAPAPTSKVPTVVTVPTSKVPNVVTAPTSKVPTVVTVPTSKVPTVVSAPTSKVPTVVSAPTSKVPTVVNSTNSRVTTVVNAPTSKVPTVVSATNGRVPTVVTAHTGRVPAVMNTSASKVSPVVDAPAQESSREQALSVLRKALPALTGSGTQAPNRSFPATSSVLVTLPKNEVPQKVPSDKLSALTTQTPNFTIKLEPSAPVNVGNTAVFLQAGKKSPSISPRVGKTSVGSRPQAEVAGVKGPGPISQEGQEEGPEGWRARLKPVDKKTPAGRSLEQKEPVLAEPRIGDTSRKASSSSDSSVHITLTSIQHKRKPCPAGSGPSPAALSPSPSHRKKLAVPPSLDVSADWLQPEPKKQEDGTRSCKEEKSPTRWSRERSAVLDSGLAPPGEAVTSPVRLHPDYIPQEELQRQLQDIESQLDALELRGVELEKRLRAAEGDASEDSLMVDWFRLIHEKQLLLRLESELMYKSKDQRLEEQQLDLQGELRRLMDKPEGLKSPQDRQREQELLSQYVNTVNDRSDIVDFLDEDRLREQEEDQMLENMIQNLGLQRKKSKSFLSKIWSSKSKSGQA

B1: His-mCherry-Rab8ADA (natural protein, mouse, UniProt P55258 1-207, looked up)
chain: MAKTYDYLFKLLLIGDSGVGKTCVLFRFSEDAFNSTFISTIGIDFKIRTIELDGKRIKLQIWDTAGLERFRTITTAYYRGAMGIMLVYDITNEKSFDNIRNWIRNIEEHASADVEKMILGNKCDVNDKRQVSKERGEKLALDYGIKFMETSAKANINVENAFFTLARDIKAKMDKKLEGNSPQGSSHGVKITVEQQKRTSFFRCSLL
notes: Rab8A, mouse, dominant-active mutant Q67L; cDNA subcloned into pcDNAHisMax-mCherry; The plasmid encodes the His6-tag followed by mCherry, then the protein's cDNA; Purified from the membrane (pellet) fraction; source: HEK293, transfected, purified from the CHAPS-extracted pellet fraction (Talon resin)
As to B1, the binding result is on record as “binds”.
